Publication PMC2425489

Assays:
[1] = biological target: T1, Pbx1a;Prep1 (;, UniProt P41778;P55347 1-430;1-436, |); assay: competition
T1 sequence 1: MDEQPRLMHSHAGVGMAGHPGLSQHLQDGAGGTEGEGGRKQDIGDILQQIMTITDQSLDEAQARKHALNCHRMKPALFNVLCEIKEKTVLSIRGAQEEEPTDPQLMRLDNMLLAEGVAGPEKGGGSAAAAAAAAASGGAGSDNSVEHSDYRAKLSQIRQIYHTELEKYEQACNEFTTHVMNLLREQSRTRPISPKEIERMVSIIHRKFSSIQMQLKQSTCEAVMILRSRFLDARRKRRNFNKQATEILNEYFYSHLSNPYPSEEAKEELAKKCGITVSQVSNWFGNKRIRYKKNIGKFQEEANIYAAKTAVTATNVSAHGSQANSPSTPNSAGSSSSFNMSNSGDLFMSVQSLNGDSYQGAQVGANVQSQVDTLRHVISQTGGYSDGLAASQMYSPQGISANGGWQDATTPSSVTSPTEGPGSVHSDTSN
T1 sequence 2: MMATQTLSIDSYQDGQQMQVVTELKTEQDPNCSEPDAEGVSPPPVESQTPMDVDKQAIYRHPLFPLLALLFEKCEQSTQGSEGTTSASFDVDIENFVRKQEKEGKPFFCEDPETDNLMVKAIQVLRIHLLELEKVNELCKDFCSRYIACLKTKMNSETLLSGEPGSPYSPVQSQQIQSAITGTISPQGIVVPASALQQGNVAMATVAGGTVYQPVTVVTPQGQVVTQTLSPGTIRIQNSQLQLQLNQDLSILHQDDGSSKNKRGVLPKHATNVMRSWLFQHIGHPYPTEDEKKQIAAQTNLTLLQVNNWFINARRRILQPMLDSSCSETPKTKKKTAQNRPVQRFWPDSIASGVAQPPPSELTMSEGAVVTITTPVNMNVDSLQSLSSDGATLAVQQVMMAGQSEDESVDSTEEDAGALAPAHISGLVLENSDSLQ

[2] = biological target: T2, Hoxa2;Pbx1a (mouse?;, UniProt P31245;P41778 1-372;1-430, |); assay: competition
T2 sequence (P31245 whole entry, one chain of several): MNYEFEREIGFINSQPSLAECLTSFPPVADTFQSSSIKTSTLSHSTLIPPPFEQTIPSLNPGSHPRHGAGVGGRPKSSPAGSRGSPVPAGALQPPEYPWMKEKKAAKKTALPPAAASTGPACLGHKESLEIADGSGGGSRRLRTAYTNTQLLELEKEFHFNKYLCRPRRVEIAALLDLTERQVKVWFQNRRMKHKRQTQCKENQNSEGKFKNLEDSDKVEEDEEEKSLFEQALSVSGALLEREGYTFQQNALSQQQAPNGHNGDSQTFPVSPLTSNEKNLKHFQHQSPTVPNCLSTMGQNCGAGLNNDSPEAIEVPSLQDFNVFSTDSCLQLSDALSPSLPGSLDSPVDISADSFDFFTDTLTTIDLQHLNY

[3] = biological target: Hoxa2 (UniProt P31245 1-372); assay: EMSA
Sequence of Hoxa2 (P31245 whole entry): as the sequence (P31245 whole entry, one chain of several) above

[4] = biological target: T1, Pbx1a;Prep1; assay: EMSA
[5] = biological target: T2, Hoxa2;Pbx1a; assay: EMSA
[6] = biological target: Hoxa2(QN-AA) (Hoxa2*);Pbx1a (mouse?;, UniProt P31245;P41778 1-372;1-430, Q188A;N189A|); assay: EMSA
Sequence of Hoxa2(QN-AA) (Hoxa2*);Pbx1a (P31245 whole entry Q188A/N189A, one chain of several): as the sequence (P31245 whole entry, one chain of several) above, with Q188A, N189A counted along it

[7] = biological target: Hoxa1 (UniProt P09022 1-331); assay: EMSA
Sequence of Hoxa1 (P09022 whole entry): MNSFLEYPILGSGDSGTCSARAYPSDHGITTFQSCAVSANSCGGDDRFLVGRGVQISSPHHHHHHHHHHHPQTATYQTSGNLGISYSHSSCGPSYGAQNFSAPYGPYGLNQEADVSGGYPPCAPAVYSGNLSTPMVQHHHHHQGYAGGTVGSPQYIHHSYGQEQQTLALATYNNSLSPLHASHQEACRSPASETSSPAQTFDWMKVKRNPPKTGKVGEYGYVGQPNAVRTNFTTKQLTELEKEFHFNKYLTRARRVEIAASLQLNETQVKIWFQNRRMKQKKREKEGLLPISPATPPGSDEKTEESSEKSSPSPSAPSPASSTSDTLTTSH

[8] = biological target: Hoxa1(WM-AA);Pbx1a (mouse?;, UniProt P09022;P41778 1-331;1-430, W203A;M204A|); assay: EMSA
Sequence of Hoxa1(WM-AA);Pbx1a (P09022 whole entry W203A/M204A, one chain of several): as the sequence (P09022 whole entry) above, with W203A, M204A counted along it

[9] = biological target: Hoxa1(WM-AA) (UniProt P09022 1-331, W203A;M204A); assay: EMSA
Sequence of Hoxa1(WM-AA) (P09022 whole entry W203A/M204A): as the sequence (P09022 whole entry) above, with W203A, M204A counted along it

[10] = biological target: Hoxa2(QN-AA) (Hoxa2*) (UniProt P31245 1-372, Q188A;N189A); assay: EMSA
Sequence of Hoxa2(QN-AA) (Hoxa2*) (P31245 whole entry Q188A/N189A): as the sequence (P31245 whole entry, one chain of several) above, with Q188A, N189A counted along it

Measured: binding result

B1: comp* (unlabelled mutated HRE) (dsDNA)
DNA 1: TTTCAAAGTTGGTGGGGGAAGACCTCG
DNA 2: CGAGGTCTTCCCCCACCAACTTTGAAA
no binding: [1] | [2]

B2: HRE* (mutated HRE) (dsDNA)
DNA 1: TTTCAAAGTTGGTGGGGGAAGACCTCG
DNA 2: CGAGGTCTTCCCCCACCAACTTTGAAA
no binding: [3] | [4] | [5]

B3: HRE (dsDNA)
DNA 1: TTTCAAAGTTCATCAATCAAGACCTCG
DNA 2: CGAGGTCTTGATTGATGAACTTTGAAA
no binding: [6] | [7] | [8] | [9] | [10]
